What was measured:
[1] = target: Human EphA2 (ephrin receptor A2) (human) (UniProt P29317); assay: IHC/IF score on frozen human tumor tissue, STS
[2] = target: Human EphA2 (ephrin receptor A2) (human) (UniProt P29317); assay: IHC/IF score on frozen human tumor tissue, Her2+ BRC
[3] = target: Human EphA2 (ephrin receptor A2) (human) (UniProt P29317); assay: IHC/IF score on frozen human tumor tissue, ANC
[4] = target: Human EphA2 (ephrin receptor A2) (human) (UniProt P29317); assay: IHC/IF score on frozen human tumor tissue, OVA
[5] = target: Human EphA2 (ephrin receptor A2) (human) (UniProt P29317); assay: IHC/IF score on frozen human tumor tissue, CRC
[6] = target: Human EphA2 (ephrin receptor A2) (human) (UniProt P29317); assay: IHC/IF score on frozen human tumor tissue, RCC-papillary
[7] = target: Human EphA2 (ephrin receptor A2) (human) (UniProt P29317); assay: IHC/IF score on frozen human tumor tissue, MELA
[8] = target: Human EphA2 (ephrin receptor A2) (human) (UniProt P29317); assay: IHC/IF score on frozen human tumor tissue, PROC
[9] = target: Human EphA2 (ephrin receptor A2) (human) (UniProt P29317); assay: IHC/IF score on frozen human tumor tissue, NSCLC-Adeno
[10] = target: Human EphA2 (ephrin receptor A2) (human) (UniProt P29317); assay: IHC/IF score on frozen human tumor tissue, UCEC-papillary
[11] = target: Human EphA2 (ephrin receptor A2) (human) (UniProt P29317); assay: IHC/IF score on frozen human tumor tissue, UCEC-endometriod
[12] = target: Human EphA2 (ephrin receptor A2) (human) (UniProt P29317); assay: IHC/IF score on frozen human tumor tissue, URO
[13] = target: Human EphA2 (ephrin receptor A2) (human) (UniProt P29317); assay: IHC/IF score on frozen human tumor tissue, HNC
[14] = target: Human EphA2 (ephrin receptor A2) (human) (UniProt P29317); assay: IHC/IF score on frozen human tumor tissue, UCEC-clear cell
[15] = target: Human EphA2 (ephrin receptor A2) (human) (UniProt P29317); assay: IHC/IF score on frozen human tumor tissue, TNBC
[16] = target: Human EphA2 (ephrin receptor A2) (human) (UniProt P29317); assay: IHC/IF score on frozen human tumor tissue, GAC
[17] = target: Human EphA2 (ephrin receptor A2) (human) (UniProt P29317); assay: IHC/IF score on frozen human tumor tissue, PANC
[18] = target: Human EphA2 (ephrin receptor A2) (human) (UniProt P29317); assay: IHC/IF score on frozen human tumor tissue, ER+ BRC
[19] = target: Human EphA2 (ephrin receptor A2) (human) (UniProt P29317); assay: IHC/IF score on frozen human tumor tissue, NSCLC-SQ
[20] = target: Human EphA2 (ephrin receptor A2) (human) (UniProt P29317); assay: IHC/IF score on frozen human tumor tissue, ESC
[21] = target: Human EphA2 (ephrin receptor A2) (human) (UniProt P29317); assay: IHC/IF score on frozen human tumor tissue, RCC-clear cell

Sequence of Human EphA2 (ephrin receptor A2) (human) (P29317 24-976 limits assumed): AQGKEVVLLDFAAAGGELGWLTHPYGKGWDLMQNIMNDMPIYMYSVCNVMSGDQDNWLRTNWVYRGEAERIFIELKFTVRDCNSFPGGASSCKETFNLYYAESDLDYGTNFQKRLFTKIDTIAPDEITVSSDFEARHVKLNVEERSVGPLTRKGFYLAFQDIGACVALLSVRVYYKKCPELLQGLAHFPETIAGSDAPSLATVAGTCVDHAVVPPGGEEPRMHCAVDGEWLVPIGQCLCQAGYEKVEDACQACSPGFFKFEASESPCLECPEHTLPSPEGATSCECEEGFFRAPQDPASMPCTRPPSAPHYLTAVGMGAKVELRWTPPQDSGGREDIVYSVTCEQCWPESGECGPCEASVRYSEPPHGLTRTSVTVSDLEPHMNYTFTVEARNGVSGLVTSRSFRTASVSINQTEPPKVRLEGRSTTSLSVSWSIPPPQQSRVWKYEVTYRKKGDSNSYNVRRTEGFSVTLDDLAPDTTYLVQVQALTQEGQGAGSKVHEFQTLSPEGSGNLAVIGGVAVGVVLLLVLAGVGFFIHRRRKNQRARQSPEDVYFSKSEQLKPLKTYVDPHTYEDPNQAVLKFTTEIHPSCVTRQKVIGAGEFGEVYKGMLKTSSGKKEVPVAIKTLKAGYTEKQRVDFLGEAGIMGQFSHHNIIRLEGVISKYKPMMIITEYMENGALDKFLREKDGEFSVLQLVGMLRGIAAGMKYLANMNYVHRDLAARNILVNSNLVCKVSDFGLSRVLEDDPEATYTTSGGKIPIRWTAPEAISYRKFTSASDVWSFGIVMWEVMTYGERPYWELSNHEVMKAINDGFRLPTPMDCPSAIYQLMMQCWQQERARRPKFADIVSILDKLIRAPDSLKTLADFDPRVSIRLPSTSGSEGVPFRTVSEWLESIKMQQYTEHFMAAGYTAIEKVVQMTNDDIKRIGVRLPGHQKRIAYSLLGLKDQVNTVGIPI

Row | Substance | IHC score [1] | IHC score [2] | IHC score [3] | IHC score [4] | IHC score [5] | IHC score [6] | IHC score [7] | IHC score [8] | IHC score [9] | IHC score [10] | IHC score [11] | IHC score [12] | IHC score [13] | IHC score [14] | IHC score [15] | IHC score [16] | IHC score [17] | IHC score [18] | IHC score [19] | IHC score [20] | other results
1 | LS-B1794-50 (AA 450-500) (antibody) | 1 | 1 | 1 | 1 | 1 | 2 | 2 | 1 | 2 | 2 | 1 | 1 | 1 | 2 | 1 | 1 | 1 | 1 | 1 | 1 | IHC score [21]: 1
2 | 6997S (around Arg907) (antibody) | 1 | 1 | 2 | 1 | 1 | 1 | 2 | 1 | 1 | 2 | 1 | 1 | 1 | 2 | 1 | 1 | 1 | 1 | 1 | 2 | IHC score [21]: 1
3 | LS-C36249-100 (extracellular) (antibody) | 2 | 2 | 2 | 2 | 1 | 1 | 3 | 1 | 2 | 3 | 2 | 1 | 2 | 2 | 1 | 1 | 1 | 1 | 2 | 2 | IHC score [21]: 1
4 | MAB3035 (Gln25-Asn534) (antibody) | 1 | 1 | 2 | 2 | 1 | 1 | 3 | 1 | 2 | 2 | 2 | 1 | 2 | 2 | 1 | 1 | 2 | 1 | 2 | 2 | IHC score [21]: 1
5 | LS-C100255-400 (AA 30-60) (antibody) | 1 | 1 | 1 | 1 | 1 | 1 | 2 | 1 | 1 | 2 | 1 | 1 | 1 | 2 | 1 | 1 | 1 | 1 | 1 | 1 | IHC score [21]: 1
6 | Ab73254 (extracellular) (antibody) | 1 | 1 | 1 | 1 | 1 | 1 | 2 | 1 | 2 | 1 | 1 | 1 | 1 | 2 | 1 | 1 | 1 | 1 | 2 | 1 | IHC score [21]: 1

— patent US20250051464A1
